Legend:
DRB0118 = target: T1, DRB0118 (Deinococcus radiodurans, UniProt Q9RZK8); test: malachite green phosphate release; type: biochemical; conditions: 1 mM substrate, 20 mM Tris-HCl pH 8.0, 37 °C, 1 h; MBP fusion
T1 construct: gene DR_B0118; residues 58-337, signal peptide removed; N-terminal MBP fusion kept, 6xHis cut by TEV; codon-optimized, E. coli BL21(DE3); mainly dimer in solution
T1 sequence (Q9RZK8 58-337): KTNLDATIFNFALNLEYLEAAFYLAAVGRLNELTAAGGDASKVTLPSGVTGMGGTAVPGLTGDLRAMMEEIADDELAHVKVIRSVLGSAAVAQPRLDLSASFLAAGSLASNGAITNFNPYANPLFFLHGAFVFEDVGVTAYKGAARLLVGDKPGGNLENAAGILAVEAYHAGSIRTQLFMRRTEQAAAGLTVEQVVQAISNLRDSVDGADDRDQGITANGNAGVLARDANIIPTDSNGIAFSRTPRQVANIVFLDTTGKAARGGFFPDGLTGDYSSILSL

[1] = target: the molecule itself; test: crystal structure; sitting-drop vapor diffusion at 20 °C, RvFeMP‐1 at 10 mg/mL; conditions A (MES pH 6.0, PEG 20000), B (MgCl2, Tris–HCl pH 8.2, PEG 4000) and C (sodium thiocyanate, sodium acetate pH 4.0, PEG4000); dimer of two protomers
[2] = target: the molecule itself; test: native gel or EMSA; high‐resolution clear native PAGE of the purified sample (EzApply Native, EzStandard Native, EzRun ClearNative, ATTO)

For `O=[N+]([O-])c1ccc(OP(=O)(O)O)cc1` [pNPP, p-nitrophenyl phosphate], the “activity (nmol/min/mg)” value (DRB0118) was “can also function as a phosphatase and the activity toward pNPP was higher”.

B1: RvFeMP‐1 (Ramazzottius varieornatus Ferritin‐like metabolite phosphatase 1), residues 21–316 (enzyme)
chain: GGNRGMSRNQDAYAEKMDMTLDALNFLLGVEHLASAFYVQAVNNFTADDFKAAGLAQRDYDQFVGVRNNEVDHRDTLISVIKSLGGKPNPPCKYTFPVTDVASVLKVSRTLENADKPAYLGALRDIKSVELRTSVQGALSGDSAHAAFFAYLTGKAPAPGPVDGPLTQRHIATLAQDFIVSCPYPAPKPFPKLTLSPQSGPVGTVVATTCAQDVDTNGVMCAIISGNQGTLMQRPGQAKDGSGAATCTIPPGVKGILFIAWVRGRDVLNVGVDDSSTVCGPNYFLLSALGDAVPGV
notes: RvFeMP‐1 (RvY_06210 product) of Ramazzottius varieornatus strain YOKOZUNA‐1, residues 21–316, without the predicted 20-residue secretory signal peptide; After TEV cleavage one G of the recognition site probably stays at the N-terminus (surmised); also called RvY_06210 product; Tar‐fer; source: E. coli Shuffle T7, purified (HiTrap TALON, TEV protease, HisTrap flowthrough, Superdex 200 SEC); not …
B1: binds [1].

B2: MBP‐DRB0118 (DRB0118 residues 58–337 fused to maltose‐binding protein) (enzyme, Deinococcus radiodurans R1)
chain: KTNLDATIFNFALNLEYLEAAFYLAAVGRLNELTAAGGDASKVTLPSGVTGMGGTAVPGLTGDLRAMMEEIADDELAHVKVIRSVLGSAAVAQPRLDLSASFLAAGSLASNGAITNFNPYANPLFFLHGAFVFEDVGVTAYKGAARLLVGDKPGGNLENAAGILAVEAYHAGSIRTQLFMRRTEQAAAGLTVEQVVQAISNLRDSVDGADDRDQGITANGNAGVLARDANIIPTDSNGIAFSRTPRQVANIVFLDTTGKAARGGFFPDGLTGDYSSILSL
notes: DRB0118 of Deinococcus radiodurans R1, residues 58–337, without the signal peptide region; codon-optimised synthetic DNA; The MBP carrier (amplified from pMAL‐c5X) stands N-terminal of DRB0118 and was kept; After TEV cleavage one G of the site probably stays before MBP (surmised); source: E. coli BL21(DE3), purified (HiTrap TALON, TEV protease, HisTrap flowthrough, Superdex 200 SEC); not shown: …
B2 was tested, and the “stoichiometry N” value [2] was 2.

Source: paper PMC11616004, “Metabolite phosphatase from anhydrobiotic tardigrades” (The Febs Journal, 2024)
